For data set [1], the target named is partner chain of the complex shown [chain 1 S65A R66A L67A R68A G69A]. Put plainly: SILAC-MS of GST pull-down. The following applies: mitotic 293T cell lysates.
Data set [2] deals with C-terminally His-tagged N-MLV CA WT (N-tropic murine leukaemia virus (N-MLV)). Put plainly: co-sedimentation.
Data set [3] addresses GST-tagged Mo-MLV p12_M63I with S61A (Moloney murine leukaemia virus (Mo-MLV)). Put plainly: pull-down.
In data set [4] the target is GST-tagged FeLV p12 I52M (feline leukaemia virus (FeLV)). Put plainly: pull-down.
The target in data set [5] is GST-tagged Mo-MLV p12_M63I with S61D (Moloney murine leukaemia virus (Mo-MLV)). Put plainly: pull-down.
In data set [6] the target is GST-tagged Mo-MLV p12_M63I with S61E (Moloney murine leukaemia virus (Mo-MLV)). Put plainly: pull-down.
Data set [7] has as its target GST-tagged FeLV p12 A53V (feline leukaemia virus (FeLV)). Put plainly: pull-down.
The target in data set [8] is GST-tagged Mo-MLV p12_M63I (Moloney murine leukaemia virus (Mo-MLV)). Put plainly: pull-down.
The test system of data set [9] is hCBS soluble competitor peptide (prototypic foamy virus (PFV)). Put plainly: competition. The conditions noted are these: scale: fold decrease of nucleosome binding to immobilised hCBS.

Experimental findings from article PMC6021111, “Murine leukemia virus p12 tethers the capsid-containing pre-integration complex to chromatin by binding directly to host nucleosomes in mitosis” (PLoS Pathogens, 2018) are described below.

C-terminally His-tagged N-MLV CA WT (N-tropic murine leukaemia virus (N-MLV)), sequence (P03336 215-477 limits assumed): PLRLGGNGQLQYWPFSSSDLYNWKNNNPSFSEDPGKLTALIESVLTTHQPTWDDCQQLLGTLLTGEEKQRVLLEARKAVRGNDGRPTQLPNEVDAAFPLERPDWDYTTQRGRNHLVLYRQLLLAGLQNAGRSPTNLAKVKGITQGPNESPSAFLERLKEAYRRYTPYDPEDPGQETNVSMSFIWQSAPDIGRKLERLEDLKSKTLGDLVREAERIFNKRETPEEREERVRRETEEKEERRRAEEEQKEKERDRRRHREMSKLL
N-MLV p12_WT (purified, untagged) (natural protein), sequence (P03336 130-214 limits assumed): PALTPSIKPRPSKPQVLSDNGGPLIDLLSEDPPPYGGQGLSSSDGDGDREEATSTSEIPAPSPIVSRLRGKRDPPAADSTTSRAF

With , the screen value (SDs from the mean) in data set [1] (replicate R1) came to 1.1; in data set [1] (replicate R2) it was 2.1.
For “N-MLV p12_WT (purified, untagged) (natural protein)”, in [2], the amount of p12 pelleted by the CA-nanotubes (67 pmol CA loaded) was 11.2 pmol and the stoichiometry N (p12 per CA (1:6)) was 0.167.
For the substance “histone H2B (from UniProt P62807 1-126) (natural protein)”, the results for the fold reduction in histone pull down against GST-p12 M63I in [3], in [5] and in [6] were 3 fold, 6 fold and 1.5 fold, respectively. In addition, the fold difference in histone precipitation against the WT FeLV p12 in data set [4] and in [7] was less than 2 fold throughout. In addition, in [8], the fold more histones pulled down from mitotic than from interphase cell lysates was 4 fold. The substance also displayed a fold reduction of H2B precipitation after kenpaullone in [8] of 3.5 fold. The substance further displayed a fold reduction of H2B precipitation after roscovitine in data set [8] of 1.5 fold.
With recombinant H3.3 poly-nucleosomes, the binding signal in data set [9] turned out to be 10.
